# Results from the RNAGym collection of RNA variant scans (doi:10.1093/molbev/msab373).
# B1: Azoarcus group I ribozyme (parent)
# chain: GUGCCUUGCGCCGGGAAACCACGCAAGGGAUGGUGUCAAAUUCGGCGAAACCUAAGCGCCCGCCCGGGCGUAUGGCAACGCCGAGCCAAGCUUCGGCGCCUGCGCCGAUGAAGGUGUAGAGACUAGACGGCACCCACCUAAGGCAAACGCUAUGGUGAAGGCAUAGUCCAGGGAGUGGCGAAAGUCACACAAACCGG
# Variants of: B1
# Test: reverse-splicing fitness (ratio to wild type); higher = more active; in vitro selection; Mg2+ level not given
# Procedure, shortened: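 An in vitro group I ribozyme library with randomized positions was T7-transcribed and gel-purified. In triplicate, 10 pmol RNA in EPPS pH 7.5 was reacted with 50 pmoles of a 30-nt RNA substrate for 1 h at 37 °C across several added MgCl2 levels (1–48 mM), then stopped with EDTA. Products were reverse transcribed from a substrate-complementary primer, PCR-amplified and sequenced (HiSeq 4000). Fitness is a variant's read proportion after selection over that before, normalised to wild type.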
row,Variant,reverse-splicing fitness
1,C82U A111U A120C A145U U176G,0.00445
2,C82U A111G C169U U176G,0.00449
3,C82U A111G C169U U176A,0.0145
4,C82U A111G C169U U176C,0.0132
5,C82U A111U A120C A145C C150U U176C,0.00856
6,C82U A111U A120C A145C C150U U176A,0.00801
7,C82U A111U A120C A145C C150U U176G,0.00423
8,C82U A111G C150G C169U U176C,0.0122
9,C82U A111G C150G C169U U176A,0.00707
10,C82U A111G C150G C169U U176G,0.00511
11,C82U A111U A120C C150U,0.0179
12,C82U A111U A120C C150G,0.00758
13,C82U A111U A120C C150A,0.0106
14,C82U A111U A120C A145C C150A U176G,0.00471
15,C82U A111U A120C A145C C150A U176C,0.00753
16,C82U A111U A120C A145C C150A U176A,0.00819
17,C82U A111U A120C,0.0288
18,C82U A111U A120C C150U C169A U176A,0.015
19,C82U A111U A120C C150U C169A U176C,0.0129
20,C82U A111U A120C C150U C169A U176G,0.00474
21,C82U A111U A120C A145U C169A U176A,0.00849

row,Variant,reverse-splicing fitness
1,C82U A111U A120C A145U C169A U176C,0.00749
2,C82U A111U A120C A145U C169A U176G,0.00442
3,C82U A111U A120C A145U C150U C169U,0.0101
4,C82U A111U A120C A145U C150U C169G,0.00796
5,C82U A111U A120C A145U C150U C169A,0.00828
6,C82U A111G C169A U176A,0.0124
7,C82U A111G C169A U176G,0.00438
8,C82U A111G C169A U176C,0.0146
9,C82U A111U A120C A145G C150A C169A U176G,0.0059
10,C82U A111U A120C A145G C150A C169A U176C,0.0189
11,C82U A111U A120C A145G C150A C169A U176A,0.0207
12,C82U A111G C150A C169G U176C,0.0199
13,C82U A111G C150A C169G U176A,0.0207
14,C82U A111G C150A C169G U176G,0.00673
15,C82U A111U A120C A145U C150A C169A U176A,0.0106
16,C82U A111U A120C A145U C150A C169A U176C,0.0094
17,C82U A111U A120C A145U C150A C169A U176G,0.00478
18,C82U A111U A120C C169A,0.00717
19,C82U A111U A120C C169U,0.0117
20,C82U A111U A120C C169G,0.00824
21,C82U A111U A120C C150G C169G U176A,0.00688

row,Variant,reverse-splicing fitness
1,C82U A111U A120C C150G C169G U176C,0.00458
2,C82U A111U A120C C150G C169G U176G,0.00402
3,C82U A111G A145U C150U U176G,0.0347
4,C82U A111G A145U C150U U176A,0.123
5,C82U A111G A145U C150U U176C,0.172
6,C82U A111U A120C C150U C169U U176C,0.0157
7,C82U A111U A120C C150U C169U U176A,0.0177
8,C82U A111U A120C C150U C169U U176G,0.00524
9,C82U A111U A120C A145U C150U C169U U176C,0.0157
10,C82U A111U A120C A145U C150U C169U U176G,0.00516
11,C82U A111U A120C A145U C150U C169U U176A,0.0145
12,C82U A111U A120C A145C C150G C169G U176A,0.00839
13,C82U A111U A120C A145C C150G C169G U176G,0.0044
14,C82U A111U A120C A145C C150G C169G U176C,0.00632
15,C82U A111U A120C A145U C150U C169A U176C,0.00781
16,C82U A111U A120C A145U C150U C169A U176G,0.00505
17,C82U A111U A120C A145U C150U C169A U176A,0.0119
18,C82U A111U A120C A145C C169U U176G,0.00412
19,C82U A111U A120C A145C C169U U176A,0.013
20,C82U A111U A120C A145C C169U U176C,0.0109
21,C82U A111U A120C A145C C150G,0.00726

row,Variant,reverse-splicing fitness
1,C82U A111U A120C A145C C150U,0.0119
2,C82U A111U A120C A145C C150A,0.00788
3,C82U A111U A120C C150G C169G,0.00613
4,C82U A111U A120C C150G C169A,0.00864
5,C82U A111U A120C C150G C169U,0.00868
6,C82U A111U A120C A145G C150G U176G,0.00575
7,C82U A111U A120C A145G C150G U176A,0.00644
8,C82U A111U A120C A145G C150G U176C,0.0109
9,C82U A111U A120C A145G C150U C169A U176G,0.00576
10,C82U A111U A120C A145G C150U C169A U176A,0.017
11,C82U A111U A120C A145G C150U C169A U176C,0.0136
12,C82U A111U A120C A145G C150G C169A U176G,0.00845
13,C82U A111U A120C A145G C150G C169A U176A,0.0133
14,C82U A111U A120C A145G C150G C169A U176C,0.0137
15,C82U A111U A120C A145U C150G,0.0076
16,C82U A111U A120C A145U C150U,0.0196
17,C82U A111U A120C A145U C150A,0.00878
18,C82U A111G A145U U176G,0.0781
19,C82U A111G A145U U176A,0.204
20,C82U A111G A145U U176C,0.258
21,C82U A111U A120C C150U C169U,0.0134
